B1: 5E5WT scFv-Fc antibody (scFv, part only; not given: Linker, domain order, Fc, V domains shown, not shown: another chain or arm of the molecule; a dimerising Fc or GST; small tags and cut ends)
VH: QLQLVESGGGLVQPGGSLRLSCAASGFTFGTYSMRWVRQVPRKALEWVSSISTDGGGTAYRDSVKGRFTISRDNAKNTLYLQMNNLKPEDTAIYYCVIAGYSDWGQGTQVTVSS
VL: ATMLTQSPGSLSVVPGESASISCKTSQGLVHSDGKTYFYWFLQKPGQSPQQLIYQVSNRASGVPDRFTGSGSGTDFTLKISGVKAEDAGVYYCAQGTYYPHTFGSGTRLEIK
B2: 5E5VH12_VLWT scFv-Fc antibody (scFv, part only; not given: Linker, domain order, Fc, V domains shown, not shown: another chain or arm of the molecule; a dimerising Fc or GST; small tags and cut ends)
VH: B1 VH with A99H
VL: B1 VL
B3: 5E5VHWT_VL8 scFv-Fc antibody (scFv, part only; not given: Linker, domain order, Fc, V domains shown, not shown: another chain or arm of the molecule; a dimerising Fc or GST; small tags and cut ends)
VH: B1 VH
VL: B1 VL with Q95H
B4: 5E5VH5_VLWT scFv-Fc antibody (scFv, part only; not given: Linker, domain order, Fc, V domains shown, not shown: another chain or arm of the molecule; a dimerising Fc or GST; small tags and cut ends)
VH: B1 VH with S52H
VL: B1 VL

Residue numbers refer to the chain shown, from its start.

In one assay the target is biotinylated human ApoC3 (human) (UniProt P02656). Description: SPR, biotinylated human ApoC3 on streptavidin chip, scFv-Fc injected, pH 5.5.
Sequence of UniProt P02656 (P02656 21-99): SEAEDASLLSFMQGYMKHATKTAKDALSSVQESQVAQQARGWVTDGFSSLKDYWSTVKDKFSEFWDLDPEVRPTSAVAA
Molecule B1 registered a Kd of 0.06 nM, a dissociation rate constant (koff) of 2.53e-05 s⁻¹ and a kon of 393000 M⁻¹ s⁻¹.

As for B2, the Kd was 16 nM, the off-rate (koff) came to 0.00206 s⁻¹ and the kon was found to be 129000 M⁻¹ s⁻¹.

The molecule B3 gave a dissociation constant Kd of 4.29 nM, an off-rate constant (koff) of 0.00116 s⁻¹ and an association rate constant (kon) of 269000 M⁻¹ s⁻¹.

In turn, B4 gave a dissociation constant (Kd) of 10.9 nM, a koff of 0.0016 s⁻¹ and a kon of 147000 M⁻¹ s⁻¹.

The target is the same in another assay. Description: SPR, biotinylated human ApoC3 on streptavidin chip, scFv-Fc injected, pH 7.4.
As to B1, the Kd came to 0.02 nM, the off-rate constant (koff) came out at 1.75e-05 s⁻¹ and the kon was found to be 823000 M⁻¹ s⁻¹.

On to B2, for which the Kd is 0.51 nM, the dissociation rate constant (koff) came to 0.000157 s⁻¹ and the kon is 308000 M⁻¹ s⁻¹.

As to B3, the Kd was 0.58 nM, the off-rate (koff) amounted to 0.000221 s⁻¹ and the kon was 381000 M⁻¹ s⁻¹.

In the case of B4, the Kd stood at 0.59 nM, the koff amounted to 0.000105 s⁻¹ and the kon came out at 178000 M⁻¹ s⁻¹.

A further assay shares this target. Description: SPR, biotinylated human ApoC3 on streptavidin chip, scFv-Fc injected; ratio of KD at pH 5.5 to KD at pH 7.4.
Turning to B1, the KD pH 5.5/KD pH 7.4 was found to be 3.

On to B2, for which the KD pH 5.5/KD pH 7.4 was found to be 31.4.

Consider B3, for which the KD pH 5.5/KD pH 7.4 came to 7.4.

B4: the KD pH 5.5/KD pH 7.4 stood at 18.5.
